The results in this text go back to publication PMC7556843, “The dynamics of linear polyubiquitin” (Science Advances, 2020).

Series [1] concerns the target T1, linear (M1-linked) triubiquitin (UniProt P0CG48 1-76; P0CG48 1-76; P0CG48 1-76).
T1 construct: ubiquitin, 76-residue unit, first of three joined head to tail (residues 1-76 of the chain); ubiquitin, 76-residue unit, second of three (residues 77-152 of the chain); ubiquitin, 76-residue unit, third of three (residues 153-228 of the chain); Construct was a gift of P. Elliott and D. Komander; no tag or extra residues are told; One polypeptide of three ubiquitin units linked M1 to C-terminus; …
Kind of series: ITC; NEMO titrated into Ub3 or Ub4 in the cell; 298 K; 50 mM sodium phosphate pH 7.0, 50 mM NaCl; triplicate. To be noted: both partners purified.

For series [2], the target named is T2, linear (M1-linked) tetraubiquitin (UniProt P0CG48 1-76; P0CG48 1-76; P0CG48 1-76; P0CG48 1-76).
T2 construct: ubiquitin, 76-residue unit, first of four joined head to tail (residues 1-76 of the chain); ubiquitin, 76-residue unit, second of four (residues 77-152 of the chain); ubiquitin, 76-residue unit, third of four (residues 153-228 of the chain); ubiquitin, 76-residue unit, fourth of four (residues 229-304 of the chain); Construct was a gift of P. Elliott and D. Komander; no tag or extra residues are …
T2 sequence (P0CG48 1-304, one chain of several): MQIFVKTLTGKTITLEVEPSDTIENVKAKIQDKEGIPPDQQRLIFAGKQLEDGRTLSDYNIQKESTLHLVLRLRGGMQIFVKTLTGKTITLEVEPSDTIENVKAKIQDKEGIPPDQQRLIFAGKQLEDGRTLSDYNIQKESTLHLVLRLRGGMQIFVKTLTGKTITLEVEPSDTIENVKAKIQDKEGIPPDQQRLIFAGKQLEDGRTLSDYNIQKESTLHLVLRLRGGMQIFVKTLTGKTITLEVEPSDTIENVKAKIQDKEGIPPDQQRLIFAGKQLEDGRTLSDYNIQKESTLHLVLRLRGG
Described as above. To be noted: both partners purified.

The target of series [3] is T1, linear (M1-linked) triubiquitin. Description: SPR; Ub3 and Ub4 immobilised by amine coupling (456 and 721 RU); NEMO injected in a twofold series; 25°C; 50 mM sodium phosphate, 50 mM NaCl, 0.005% Tween 20, pH 7; equilibrium responses fitted to a 1:1 Langmuir isotherm. To be noted: both partners purified. A general note: Surface plasmon resonance follows binding to a sensor surface in real time, without labels.

Series [4] has as its target T2, linear (M1-linked) tetraubiquitin. The description is as above. To be noted: both partners purified.
Series [5] concerns the molecule itself. Kind of series: SEC-MALS; SEC (Superdex 200 10/300 GL, 4°C) with static light scattering (right-angle, Viscotek TDA 305, 30°C); about 8 mg/ml; 50 mM tris-HCl, 300 mM NaCl pH 8.0 and 50 mM sodium phosphate, 50 mM NaCl pH 7.0. A general note: In gel filtration, larger molecules generally elute earlier.
Series [6] has as its target T1, linear (M1-linked) triubiquitin. Described as above. To be noted: both partners purified.
The target of series [7] is T2, linear (M1-linked) tetraubiquitin. The description is as above. To be noted: both partners purified.

T1 sequence (P0CG48 1-228, one chain of several): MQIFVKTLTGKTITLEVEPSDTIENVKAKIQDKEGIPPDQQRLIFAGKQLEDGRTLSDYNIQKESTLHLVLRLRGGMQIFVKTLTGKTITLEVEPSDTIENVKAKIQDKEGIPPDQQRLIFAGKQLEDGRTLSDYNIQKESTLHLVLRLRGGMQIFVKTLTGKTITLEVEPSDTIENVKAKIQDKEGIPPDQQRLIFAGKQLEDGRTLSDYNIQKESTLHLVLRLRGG

B1: Human NEMO258-350 C347S (NEMO UBAN domain) (domain or fragment, UniProt Q9Y6K9 258-350, looked up)
chain: MQLEDLKQQLQQAEEALVAKQEVIDKLKEEAEQHKIVMETVPVLKAQADIYKADFQAERQAREKLAEKKELLQEQLEQLQREYSKLKASSQES
notes: NEMO (IKKγ, NF-κB essential modulator), human, residues 258-350 (UBAN domain) with C347S; also called NEMO mutant (C347S); IKKγ; source: expressed and purified as described in Vincendeau et al. (23)
With B1, the Kd (usually the constant that tells how readily two partners part at equilibrium) is 1.6 µM in series [1], 4.1 µM in series [2], 9.6 µM in series [3] and 6.4 µM in series [4]. The dH was -4.28 kcal/mol in series [1] and -4.49 kcal/mol in series [2]. For the same molecule, the binding result in series [5] is listed as “binds”. Besides, the figures for the “stoichiometry N” value in series [6] and in series [7] were 2 NEMO:Ub3 and 2 NEMO:Ub4, respectively.
